In article PMC3858362, “A Soluble Fucose-Specific Lectin from Aspergillus fumigatus Conidia - Structure, Specificity and Possible Role in Fungal Pathogenicity” (PLoS ONE, 2013):

Biological target: the molecule itself
Assay: AUC; sedimentation velocity; AFL 0.04-0.30 mg/ml in 20 mM Tris/HCl, 300 mM NaCl, pH 7.4; 20 °C, 42,000 rpm; continuous c(s) analysis in Sedfit

B1: Aspergillus fumigatus lectin (AFL), recombinant (natural protein)
chain: MSTPGAQQVLFRTGIAAVNSTNHLRVYFQDVYGSIRESLYEGSWANGTEKNVIGNAKLGSPVAATSKELKHIRVYTLTEGNTLQEFAYDSGTGWYNGGLGGAKFQVAPYSCIAAVFLAGTDALQLRIYAQKPDNTIQEYMWNGDGWKEGTNLGGALPGTGIGATSFRYTDYNGPSIRIWFQTDDLKLVQRAYDPHKGWYPDLVTIFDRAPPRTAIAATSFGAGNSSIYMRIYFVNSDNTIWQVCWDHGKGYHDKGTITPVIQGSEVAIISWGSFANNGPDLRLYFQNGTYISAVSEWVWNRAHGSQLGRSALPPA
notes: Fucose-specific lectin AFL of Aspergillus fumigatus, gene AFUA_5G14740 (Af293 genome); cloned from a commercial cDNA library of A. fumigatus ATCC 13073 with primers from the start ATG to an in-frame stop codon; 314 aa long without the initial Met; Cloned NdeI/HindIII into pET29a with its own stop codon; no tag is mentioned; also called rAFL; AfuFleA
  stoichiometry N: 2
